These results are taken from US20250277050A1 (MEDICAL COLLEGE OF WISCONSIN, published 2025).

Numbering of substitutions follows the chain as printed.

The target of test [1] is T1, human CD30 expressed on the cell surface (human, UniProt P28908 19-595).
T1 construct: whole, on cells; also called huCD30; cell-surface expressed CD30
T1 sequence (looked up): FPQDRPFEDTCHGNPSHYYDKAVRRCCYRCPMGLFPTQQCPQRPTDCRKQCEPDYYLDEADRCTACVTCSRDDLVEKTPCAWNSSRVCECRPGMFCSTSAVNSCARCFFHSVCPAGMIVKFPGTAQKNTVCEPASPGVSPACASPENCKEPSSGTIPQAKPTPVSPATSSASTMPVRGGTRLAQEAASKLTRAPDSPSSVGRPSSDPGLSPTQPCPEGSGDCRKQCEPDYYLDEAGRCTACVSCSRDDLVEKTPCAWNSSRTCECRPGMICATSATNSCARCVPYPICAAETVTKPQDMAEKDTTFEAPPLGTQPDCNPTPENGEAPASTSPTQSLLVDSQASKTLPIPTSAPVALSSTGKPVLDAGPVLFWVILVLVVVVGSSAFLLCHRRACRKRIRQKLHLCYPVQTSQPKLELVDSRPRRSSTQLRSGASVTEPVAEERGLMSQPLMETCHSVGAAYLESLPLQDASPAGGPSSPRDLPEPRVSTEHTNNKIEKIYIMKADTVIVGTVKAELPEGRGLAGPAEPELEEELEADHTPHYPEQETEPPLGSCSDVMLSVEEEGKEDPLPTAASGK
The experiment in a line: flow cytometry, purified antibody on cells with CD30 surface expression. (In general: A flow cytometer gives signals particle by particle.)

The target in test [2] is T1, human CD30 expressed on the cell surface. The experiment in a line: flow cytometry on CD30+ and CD30- cell lines. The protocol:
Flow cytometry analysis was preformed using purified antibody on CD30+ cell lines (SU-DHL-1, RPMI6666, […]) and a CD30− cell line (OCIAML2). A commercially available α-huCD30 antibody (clone BY88) and an isotype control were also tested.
We have employed hybridoma technology to generate novel murine anti-human CD30 mAbs. Mice were immunized and boosted with purified human GST-tagged CD30. Mouse spleen cells were then harvested and fused with myeloma cells to generate antibody secreting hybridoma. Hybridoma supernatants were screened for specificity to purified CD30 protein by ELISA, and GST specific clones were eliminated. […] Specific binding of our mAbs to cell-surface expressed CD30 was assessed by flow cytometry (FIG. 1) using 293T cells (CD30−), lentiviral transduced 293T cells expressing huCD30, and K562 cells which are naturally CD30+. The 293T (CD30−), 293T LV huCD30 (transduced with human CD30), SU-DHL-1 (lymphoma), RPMI.6666 (lymphoma) or K562 (CML) cell lines were incubated with each antibody in the form of unpurified hybridoma supernatant, and then incubated with an Alexa Fluor 647-labeled anti-mouse IgG antibody. Cell-associated fluorescence was determined by FACS.

B1: 15B8 (antibody, V domains shown)
VH: QVQLEQSGTELVKPGASVKLSCKASGYTFTSYWMHWVKQRPGQGLEWIGNINPSNGGTNYNEKFKSKATLTVDKSSSTAYMQLSSLTSEDSAIYYCARRNNYYASSPFAYWGQGTLVSVSA
VL: DIVMTQTPASLSASVGETVTITCRASGNIHNYLAWYQQKQGKSPQLLVYNAKTLADGVPSRFSGSGSGTQYSLKINSLQPEDFGSYYCQHFWSTPFTFGSGTKLEIK
notes: Murine anti-human CD30 monoclonal antibody from a hybridoma, detected with anti-mouse IgG; also called monoclonal antibody 15B8
With B1, in test [1], the binding result is listed as “binds”.

B2: 12B1 (antibody, V domains shown)
VH: EVKLEESGTELVKPGASVKLSCKASGYTFTSYWMHWVKQRPGQGLEWIGNINPTNGGTNYNEKFKSKATLTVDKSSRTAYMQLSSLTSGDSAVYYCARRDFITTSGFAYWGQGTLVTVSA
VL: B1 VL with P8T, A13T, I29L, N31S, A34T, N76D, S93T
notes: Murine anti-human CD30 monoclonal antibody from a hybridoma, detected with anti-mouse IgG; also called monoclonal antibody 12B1
As for B2, the binding result in test [2] was “binds”.

B3: 8D10 (antibody, V domains shown)
VH: QVQLQESGTELVKPGASVKLSCKASGYTFTSYWMHWMKQRPGQGLEWIGNINPSNGGTNYNEKFKNKATLTVDKSSSTAYMQLSSLTSEDSAVYYCARRDYYYGSSYGFDVWGTGTTVTVSS
VL: DIVMTQSPASQSASLGESVTITCLASQTIGTWLAWYQQKPGKSPQFLIYAATSLADGVPSRFSGSGSGTKFSFKISSLQAEDFVSYYCQQLYSTPFTFGGGTKLEIK
notes: Murine anti-human CD30 monoclonal antibody from a hybridoma, detected with anti-mouse IgG; also called monoclonal antibody 8D10; anti-CD30 mAb 8D10
Regarding B3, the binding result in test [2] is “binds”.

B4: 10C2 (antibody, V domains shown)
VH: QVQLEQSGPVLVKPGASVKMSCKASGYTFTDYYMNWVKQSHGKSLEWIGVINPYNGGTSYNQKFKGKATLTVDKSSSTACMELNCLTSEDSAVYYCTLGAYWGQGTSVTVSS
VL: not shown
notes: Murine anti-human CD30 monoclonal antibody from a hybridoma, detected with anti-mouse IgG; also called monoclonal antibody 10C2; anti-CD30 mAb 10C2
Take B4: the binding result in test [2] is given as “binds”.

B5: 13H1 (antibody, V domains shown)
VH: QVQLQQSGTELVKPGASVKLSCKASGHTFTSYWMHWVKQRPGQGLEWIGNINPSNGGTNYNEKFKSKATLTVDKSSSTAYMQLSSLTSEDSAVYYCARRGYYGSSSYWSFDVWGTGTTVTVSS
VL: DIVMTQTPKSMSMSVGERVTLSCKASENVGTYVSWYQQKPEQSPKVLIYGASNRFTGVPDRFTGSGSATDFTLTISSVQTEDLADYHCGQSYSYPLTFGAGTKLELK
notes: Murine anti-human CD30 monoclonal antibody from a hybridoma, detected with anti-mouse IgG; also called monoclonal antibody 13H1
For B5, the binding result in test [2] was “binds”.
